We go through four molecules from patent US20220387586A1 (Hoffmann-La Roche, published 2022).

A word on the EC50: it is the concentration that produces a half-maximal response. As usually defined, the IC50 is the concentration at which inhibition is half-maximal.

For test [1], the target named is T1, PD1 on PD1+LAG3+ human U2OS cells (UniProt Q15116 25-288). Briefly: cell-based or functional assay.
Test [2] concerns the target T2, LAG3 on cells (recombinant CHO cells expressing Lag3) (human, UniProt P18627 29-525).
T2 construct: The cell ELISA paragraphs say only 'Lag3'; also called CHO-LAG3; Lag3 cells
T2 sequence: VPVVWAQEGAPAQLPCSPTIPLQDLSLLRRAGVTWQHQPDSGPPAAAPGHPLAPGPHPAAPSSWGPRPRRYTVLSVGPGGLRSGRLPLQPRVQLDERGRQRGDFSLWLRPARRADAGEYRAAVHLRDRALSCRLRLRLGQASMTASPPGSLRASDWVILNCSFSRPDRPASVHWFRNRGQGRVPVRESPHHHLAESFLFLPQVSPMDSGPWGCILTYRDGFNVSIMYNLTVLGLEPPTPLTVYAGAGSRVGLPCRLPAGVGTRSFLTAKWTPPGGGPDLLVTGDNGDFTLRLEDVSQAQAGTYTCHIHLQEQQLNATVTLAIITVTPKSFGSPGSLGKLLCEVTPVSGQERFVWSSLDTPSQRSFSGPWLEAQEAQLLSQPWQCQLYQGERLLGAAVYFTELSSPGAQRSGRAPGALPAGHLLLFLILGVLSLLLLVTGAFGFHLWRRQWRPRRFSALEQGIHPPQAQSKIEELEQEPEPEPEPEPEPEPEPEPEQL
In words: cell ELISA on recombinant CHO cells expressing Lag3 (rel. EC50). The protocol: After washing (1×90 μl in PBST) cells were fixed by addition of 30 μl/well glutaraldehyde to a final concentration of 0.05% (Sigma Cat.No: G5882), 10 min at room temperature. After washing (3×90 μl/well with PBST-buffer) 25 μl/well goat anti-Human Ig κ chain antibody-HRP conjugate (Milipore, AP502P) was added in a 1:1000 dilution and incubated at RT for 1 h. After washing (3×90 μl/well with PBST-buffer) 25 μl/well TMB substrate (Roche, 11835033001) was added and incubated for 6-10 min. Measurement took place on a Tecan Safire 2 instrument at 370/492 nm.
For orientation: ELISA stands for enzyme-linked immunosorbent assay.

A further test concerns the target T3, biotinylated-Lag3 (UniProt P18627 23-450, limits assumed, biotinylated).
T3 construct: Probably a human LAG3 ECD construct; also called Lag3 (MHCII/ELISA)
T3 sequence (looked up): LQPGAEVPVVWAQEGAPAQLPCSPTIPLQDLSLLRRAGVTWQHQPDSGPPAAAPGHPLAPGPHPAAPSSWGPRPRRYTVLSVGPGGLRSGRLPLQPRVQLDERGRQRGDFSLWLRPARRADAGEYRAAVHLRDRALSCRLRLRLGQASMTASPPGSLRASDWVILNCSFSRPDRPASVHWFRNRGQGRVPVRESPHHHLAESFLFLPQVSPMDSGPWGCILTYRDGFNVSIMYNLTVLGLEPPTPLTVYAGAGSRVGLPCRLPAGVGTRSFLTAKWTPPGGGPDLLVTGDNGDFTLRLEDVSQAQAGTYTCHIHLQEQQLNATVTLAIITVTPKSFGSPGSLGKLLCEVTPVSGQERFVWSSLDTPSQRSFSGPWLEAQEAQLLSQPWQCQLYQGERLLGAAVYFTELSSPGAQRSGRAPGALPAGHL
Briefly: ELISA, inhibition of biotinylated-Lag3 binding to MHC-II on A375 cells (competitor MHC-II). The protocol:
25 μl/well of A375 cells (10000 cells/well) were seeded into tissue culture treated 384-well plates (Corning, 3701) and incubated at 37° C. overnight. […] After washing (1×90 μl in PBST) cells were fixed by addition of 30 μl/well glutaraldehyde to a final concentration of 0.05% (Sigma Cat.No: G5882), 10 min at room temperature. After washing (3×90 μl/well with PBST-buffer) 25 μl/well Poly-HRP40-Streptavidin (Fitzgerald, 65R-S104PHRPx) was added in a 1:2000 or 1:8000 dilution and incubated at RT for 1 h. After washing (3×90 μl/well with PBST-buffer) 25 μl/well TMB substrate (Roche, 11835033001) was added and incubated for 2 to 10 min. Measurement took place on a Tecan Safire 2 instrument at 370/492 nm.

Test [3] deals with T4, biotinylated PD1-ECD-AviHis (human, UniProt Q15116 25-170, biotinylated).
T4 construct: also called huPD1; hu PD1; not shown: Avi-His tag
T4 sequence (Q15116 25-170): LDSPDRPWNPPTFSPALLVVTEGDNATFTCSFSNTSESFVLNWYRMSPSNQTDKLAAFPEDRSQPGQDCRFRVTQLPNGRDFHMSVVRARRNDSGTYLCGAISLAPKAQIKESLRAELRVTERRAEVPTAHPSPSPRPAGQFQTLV
Briefly: ELISA on coated biotinylated PD1-ECD-AviHis (rel. EC50). The protocol: After washing (3×90 μl/well with PBST-buffer) 25 μl/well goat-anti-human H+L-POD (JIR, JIR109-036-098) was added in 1:5000 dilution and incubated at RT for 1 h on a shaker. After washing (3×90 μl/well with PBST-buffer) 25 μl/well of TMB substrate (Roche, 11835033001) was added and incubated until OD 2-3. Measurement took place at 370/492 nm.

Test [4] has as its target T5, full-length human PD1 on cells (human, UniProt Q15116 25-288).
T5 construct: also called CHO-PD1
In words: cell ELISA on CHO-K1 cells expressing full-length human PD1 (rel. EC50). The protocol: (to avoid internalization). After washing carefully (1×90 μl/well PBST) cells were fixed by adding 30 μl/well 0.05% Glutaraldehyde (Sigma, Cat.No: G5882, 25%) diluted in 1×PBS-buffer and incubated for 10 min at RT. After washing (3×90 μl/well PBST) 25 μl/well secondary antibody was added for detection: goat-anti-human H+L-POD (JIR, JIR109-036-088)/Sheep-anti-mouse-POD (GE NA9310) followed by 1 h incubation at RT on shaker. After washing (3×90 μl/well PBST) 25 μl/well TMB substrate solution (Roche 11835033001) was added and incubated until OD 1.0-2.0. Plates were measured at 370/492 nm.

The target in test [5] is T1, PD1 on PD1+LAG3+ human U2OS cells. Briefly: cell-based or functional assay. The source holds these as a separate data set.
In test [6] the target is T6, recombinant Human LAG-3 Fc Chimera Protein (R&D Systems, 2319-L3) (human, UniProt P18627 29-450).
T6 construct: Bought protein; also called huLAG3; not shown: Fc part of the chimera
T6 sequence: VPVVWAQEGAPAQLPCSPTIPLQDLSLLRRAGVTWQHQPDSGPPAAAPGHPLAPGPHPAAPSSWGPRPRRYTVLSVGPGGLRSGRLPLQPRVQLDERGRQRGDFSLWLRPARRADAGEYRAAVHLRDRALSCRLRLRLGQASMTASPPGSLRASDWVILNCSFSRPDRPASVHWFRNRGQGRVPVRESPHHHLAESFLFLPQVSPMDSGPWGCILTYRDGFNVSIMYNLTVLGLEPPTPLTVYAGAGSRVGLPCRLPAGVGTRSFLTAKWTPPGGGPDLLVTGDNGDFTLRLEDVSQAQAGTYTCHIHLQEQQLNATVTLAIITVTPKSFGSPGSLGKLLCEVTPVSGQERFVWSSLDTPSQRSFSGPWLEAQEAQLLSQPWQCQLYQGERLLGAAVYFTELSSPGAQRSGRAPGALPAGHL
Briefly: ELISA on coated Human LAG-3 Fc Chimera (rel. EC50). The protocol:
After washing (3×90 μl/well with PBST-buffer) each well was incubated with 90 μl blocking buffer (PBS+2% BSA+0.05% Tween 20) for 1 h at room temperature. […] After washing (3×90 μl/well with PBST-buffer) 25 μl/well goat anti-Human Ig κ chain antibody-HRP conjugate (Milipore, AP502P) was added in a 1:2000 dilution and incubated at RT for 1 h. After washing (3×90 μl/well with PBST-buffer) 25 μl/well TMB substrate (Roche, 11835033001) was added and incubated for 2-10 min. Measurement took place on a Tecan Safire 2 instrument at 370/492 nm.

Where two headings read alike, the source gives them in different places.

T5 sequence (Q15116 25-288 limits assumed): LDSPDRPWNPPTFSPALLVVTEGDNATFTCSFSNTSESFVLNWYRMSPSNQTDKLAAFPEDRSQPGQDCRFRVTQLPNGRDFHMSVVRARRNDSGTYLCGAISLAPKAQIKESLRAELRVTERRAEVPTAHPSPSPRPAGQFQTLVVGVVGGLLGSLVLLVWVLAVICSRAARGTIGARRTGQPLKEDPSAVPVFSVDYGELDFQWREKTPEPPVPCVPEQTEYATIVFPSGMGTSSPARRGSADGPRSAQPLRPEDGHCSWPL
T1 sequence (Q15116 25-288): as the sequence (Q15116 25-288 limits assumed) above

B1: PD1/LAG3 8310 (bispecific antibody, human IgG1, kappa, L234A L235A)
heavy 1: not shown
heavy 2: EVQLLESGGGLVQPGGSLRLSCAASGFIFDDYTMNWVRQAPGKGLEWVAVISWDGGGTYYTDSVKGRFTISRDDFKNTLYLQMNSLRAEDTAVYYCAKGLTDTTLYGSDYWGQGTLVTVSSASTKGPSVFPLAPSSKSTSGGTAALGCLVEDYFPEPVTVSWNSGALTSGVHTFPAVLQSSGLYSLSSVVTVPSSSLGTQTYICNVNHKPSNTKVDEKVEPKSCDKTHTCPPCPAPEAAGGPSVFLFPPKPKDTLMISRTPEVTCVVVDVSHEDPEVKFNWYVDGVEVHNAKTKPREEQYNSTYRVVSVLTVLHQDWLNGKEYKCKVSNKALGAPIEKTISKAKGQPREPQVCTLPPSRDELTKNQVSLSCAVKGFYPSDIAVEWESNGQPENNYKTTPPVLDSDGSFFLVSKLTVDKSRWQQGNVFSCSVMHEALHNHYTQKSLSLSPGK
light 1: DIVMTQSPDSLAVSLGERATINCKASESVDTSDNSFIHWYQQKPGQSPKLLIYRSSTLESGVPDRFSGSGSGTDFTLTISSLQAEDVAVYYCQQNYDVPWTFGQGTKVEIKSSASTKGPSVFPLAPSSKSTSGGTAALGCLVKDYFPEPVTVSWNSGALTSGVHTFPAVLQSSGLYSLSSVVTVPSSSLGTQTYICNVNHKPSNTKVDKKVEPKSC
light 2: not shown
notes: 2+1 format: two LAG3 Fabs, one PD1 crossFab fused to the C-terminus of the Fc knob heavy chain
On to B1, for which the figures for the “EC50 [pM], dimerization binding assay (chemoluminescence)” value (from here on “EC50 [pM], dimerization binding assay”) in test [1] and in test [5] were 114 pM and 28 pM, respectively. Further, the EC50 in test [2] turned out to be 0.2 nM; in test [3], 0.06 nM; in test [4] it was 0.34 nM; in test [6], 0.06 nM. Moreover, in the test with biotinylated-Lag3, the half-maximal inhibitory concentration (IC50) came out at 0.47 nM.

B2: PD1/LAG3 8311 (bispecific antibody, human IgG1, kappa, L234A L235A)
heavy 1: not shown
heavy 2: EVQLVESGGGLVQPGGSLRLACAASGFTFSDYAMSWVRQAPGKGLEWVSGIDNSGYYTYYTDSVKGRFTISRDDVKNTLYLQMNSLRAEDTAVYLCTKTHSGLIVNDAFDIWGQGTMVTVSSASTKGPSVFPLAPSSKSTSGGTAALGCLVEDYFPEPVTVSWNSGALTSGVHTFPAVLQSSGLYSLSSVVTVPSSSLGTQTYICNVNHKPSNTKVDEKVEPKSCDKTHTCPPCPAPEAAGGPSVFLFPPKPKDTLMISRTPEVTCVVVDVSHEDPEVKFNWYVDGVEVHNAKTKPREEQYNSTYRVVSVLTVLHQDWLNGKEYKCKVSNKALGAPIEKTISKAKGQPREPQVCTLPPSRDELTKNQVSLSCAVKGFYPSDIAVEWESNGQPENNYKTTPPVLDSDGSFFLVSKLTVDKSRWQQGNVFSCSVMHEALHNHYTQKSLSLSPGK
light 1: DIVMTQSPDSLAVSLGERATINCKASESVDTSDNSFIHWYQQKPGQSPKLLIYRSSTLESGVPDRFSGSGSGTDFTLTISSLQAEDVAVYYCQQNYDVPWTFGQGTKVEIKSSASTKGPSVFPLAPSSKSTSGGTAALGCLVKDYFPEPVTVSWNSGALTSGVHTFPAVLQSSGLYSLSSVVTVPSSSLGTQTYICNVNHKPSNTKVDKKVEPKSC
light 2: not shown
notes: as for B1
Take B2: the “EC50 [pM], dimerization binding assay” value came to 124 pM in test [1] and 119 pM in test [5]. For the same molecule, the EC50 amounted to 0.17 nM in test [2], 0.05 nM in test [3], 0.32 nM in test [4] and 0.06 nM in test [6]. In the test with biotinylated-Lag3, this molecule displayed an IC50 of 0.39 nM.

B3: PD1/LAG3 8970 (bispecific antibody, human IgG1, kappa, L234A L235A)
heavy: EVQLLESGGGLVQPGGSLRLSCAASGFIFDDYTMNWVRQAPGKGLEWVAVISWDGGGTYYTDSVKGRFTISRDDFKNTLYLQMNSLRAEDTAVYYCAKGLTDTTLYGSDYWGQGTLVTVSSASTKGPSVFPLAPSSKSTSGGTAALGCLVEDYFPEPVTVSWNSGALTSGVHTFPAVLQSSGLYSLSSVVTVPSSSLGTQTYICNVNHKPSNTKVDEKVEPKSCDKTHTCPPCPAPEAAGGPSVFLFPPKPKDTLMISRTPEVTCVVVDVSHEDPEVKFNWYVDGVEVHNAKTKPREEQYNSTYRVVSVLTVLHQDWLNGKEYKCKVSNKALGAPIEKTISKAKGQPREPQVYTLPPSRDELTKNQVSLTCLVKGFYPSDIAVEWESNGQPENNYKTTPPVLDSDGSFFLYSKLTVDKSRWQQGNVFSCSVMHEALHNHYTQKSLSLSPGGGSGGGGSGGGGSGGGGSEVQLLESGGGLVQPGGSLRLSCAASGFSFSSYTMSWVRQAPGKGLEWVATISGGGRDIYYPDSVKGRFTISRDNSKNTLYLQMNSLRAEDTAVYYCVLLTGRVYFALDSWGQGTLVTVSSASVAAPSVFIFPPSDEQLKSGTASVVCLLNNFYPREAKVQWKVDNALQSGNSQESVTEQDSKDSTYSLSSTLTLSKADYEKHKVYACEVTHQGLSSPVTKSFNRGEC
light 1: DIVMTQSPDSLAVSLGERATINCKASESVDTSDNSFIHWYQQKPGQSPKLLIYRSSTLESGVPDRFSGSGSGTDFTLTISSLQAEDVAVYYCQQNYDVPWTFGQGTKVEIKSSASTKGPSVFPLAPSSKSTSGGTAALGCLVKDYFPEPVTVSWNSGALTSGVHTFPAVLQSSGLYSLSSVVTVPSSSLGTQTYICNVNHKPSNTKVDKKVEPKSC
light 2: not shown
notes: 2+2 format
Consider B3, for which, in test [1], the “EC50 [pM], dimerization binding assay” value is 83 pM. Also, the EC50 in test [2] was found to be 0.2 nM; in test [3], 0.05 nM; in test [4], 0.46 nM; in test [6] it was 0.04 nM. Further, the IC50 with biotinylated-Lag3 came out at 0.45 nM.

B4: PD1/LAG3 8984 (bispecific antibody, human IgG1, kappa, L234A L235A)
heavy: not shown
light 1: DIVMTQSPDSLAVSLGERATINCKASESVDTSDNSFIHWYQQKPGQSPKLLIYRSSTLESGVPDRFSGSGSGTDFTLTISSLQAEDVAVYYCQQNYDVPWTFGQGTKVEIKSSASTKGPSVFPLAPSSKSTSGGTAALGCLVKDYFPEPVTVSWNSGALTSGVHTFPAVLQSSGLYSLSSVVTVPSSSLGTQTYICNVNHKPSNTKVDKKVEPKSC
light 2: not shown
notes: 2+2 format
B4: the “EC50 [pM], dimerization binding assay” value in test [1] came to 91 pM. Also, the EC50 in test [2] was 0.17 nM; in test [3] it was 0.05 nM; in test [4], 0.54 nM; in test [6], 0.05 nM. This molecule returned a half-inhibitory concentration (IC50) in the test with biotinylated-Lag3 of 0.44 nM.
